Measured values: patent US20250186614A1, “COMPACT DRUG RESPONSIVE DOMAINS FOR REGULATION OF FUNCTION/ABUNDANCE AND DELIVERY OF POLYPEPTIDE PAYLOADS” (OBSIDIAN THERAPEUTICS, INC., priority 2022, published 2025)
Where a chain is given by its changes, count along the chain named. In names and notes the source's numbering stands.

B1: FKBP-094: FKBP13 DRD Q72R, Q84E, A117H, P107S; SEQ ID NO: 44 (protein)
chain: HCPIKSRKGDVLHMHYTGKLEDGTEFDSSLPRNQPFVFSLGTGEVIKGWDQGLLGMCEGEKRKLVISSELGYGERGHPPKIPGGATLVFEVELLKIER
modifications: Description of sequence: FKBP13-AcGFP-mCherry Fusion; Construct Name: FKBP-094; FKBP13 DRD in Construct : FKBP13 (mutated to match FKBP12 active site Q72R Q84E A117H) (DRD - P107S)
B2: FKBP-123: FKBP13 DRD Q72R, Q84E, A117W, G49S; SEQ ID NO: 73 (protein)
chain: B1 chain with G9S, S67P, H77W
modifications: Description of sequence: FKBP13-AcGFP-mCherry Fusion; Construct Name: FKBP-123; FKBP13 DRD in Construct : FKBP13 (mutated to match FKBP12 active site Q72R Q84E A117W) (DRD G49S)
B3: FKBP-097: FKBP13 DRD Q72R, Q84E, A117H, E100S; SEQ ID NO: 47 (protein)
chain: B1 chain with E60S, S67P
modifications: Description of sequence: FKBP13-AcGFP-mCherry Fusion; Construct Name: FKBP-097; FKBP13 DRD in Construct : FKBP13 (mutated to match FKBP12 active site Q72R Q84E A117H) (DRD - E100S)
B4: FKBP-121: FKBP13 DRD Q72R, Q84E, A117W, I136V; SEQ ID NO: 71 (protein)
chain: B1 chain with S67P, H77W, I96V
modifications: Description of sequence: FKBP13-AcGFP-mCherry Fusion; Construct Name: FKBP-121; FKBP13 DRD in Construct : FKBP13 (mutated to match FKBP12 active site Q72R Q84E A117W) (DRD I136V)
B5: FKBP-095: FKBP13 DRD Q72R, Q84E, A117H, P122S; SEQ ID NO: 45 (protein)
chain: B1 chain with S67P, P82S
modifications: Description of sequence: FKBP13-AcGFP-mCherry Fusion; Construct Name: FKBP-095; FKBP13 DRD in Construct : FKBP13 (mutated to match FKBP12 active site Q72R Q84E A117H) (DRD - P122S)
B6: FKBP-122: FKBP13 DRD Q72R, Q84E, A117H, I136V; SEQ ID NO: 72 (protein)
chain: B1 chain with S67P, I96V
modifications: Description of sequence: FKBP13-AcGFP-mCherry Fusion; Construct Name: FKBP-122; FKBP13 DRD in Construct : FKBP13 (mutated to match FKBP12 active site Q72R Q84E A117H) (DRD I136V)
B7: FKBP-084: FKBP13 trunc2 DRD Q72R, Q84E, A117H, M54A; SEQ ID NO: 34 (protein)
chain: PIKSRKGDVLHAHYTGKLEDGTEFDSSLPRNQPFVFSLGTGEVIKGWDQGLLGMCEGEKRKLVIPSELGYGERGHPPKIPGGATLVFEVELLKIER
modifications: truncated (trunc2); Description of sequence: FKBP13-AcGFP-mCherry Fusion; Construct Name: FKBP-084; FKBP13 DRD in Construct : FKBP13 trunc2 (mutated to match FKBP12 active site Q72R Q84E A117H) (DRD - M54A)

Test system: Jurkat cells
Test: Tacrolimus dose response of FKBP13-AcGFP-mCherry constructs stably transduced into Jurkat cells, GFP MFI by flow cytometry
Format: cell-based
Procedure: The regulation of AcGFP, from FKBP13-AcGFP-mCherry constructs, in Jurkat cells, was also studied. Jurkat Clone E6-1 cells were cultured in standard media (RPMI+GlutaMAX Supplement (Life Technologies, Carlsbad, CA Cat #61870127), Fetal Bovine Serum (FBS) (Life Technologies Cat #10-082-147)). Jurkat cells were transduced with lentivirus produced with each of FKBP-039, FKBP-040, FKBP-041, FKBP-042, FKBP-043, FKBP-044, or FKBP-045 constructs. Jurkat cells were transduced until they were 10-25% positive, as determined on day 5 post-transduction, by using mCherry as a transduction marker. […] The Geometric Mean Fluorescent Intensity (MFI) of GFP expression in mCherry+ cells was plotted and dose response curve fits were performed using Prism Software (San Diego, CA).
FKBP-091 was used as a comparative construct.
FIGS. 22-38 show the results of characterization of FKBP-160-292. […] FKBP-091 and FKBP-117 was used as a comparative control for FKBP-160-FKBP-255. FKBP-195 was used as a comparative control for FKBP-256-FKBP-275. FKBP-117, FPBP-195 and FKBP-251 were used as a comparative control for FKBP-276-FKBP-292.
FKBP mutants were cloned in a manner to make a fusion protein with AcGFP in order to assess FKBP mutant regulation by using AcGFP expression as a readout. […] Further iterative FKBP mutants (FKBP-256-FKBP-292) were constructed from these initial combinatorial mutants to see if we could further improve FKBP DRD properties.

[1] = tacrolimus dose response, Jurkat cells stably transduced (FIG. 10), Table 5
[2] = tacrolimus, Jurkat cells stably transduced, Table 6

Molecule	Fold Change [1]	Fold Change [2]
B1	13.5	–
B2	–	48.38
B3	36.75	–
B4	–	28.35
B5	31.4	–
B6	–	22.51
B7	12.42	–
